According to publication PMC11041648:
Where two headings read alike, the source gives them in different places.

Columns and labels:
PGT145 IgG (human) [1] = experiment: BLI; Octet Red; PGT145 IgG (8 µg/mL) loaded on anti-human IgG Fc capture biosensors; twofold dilution series of SOSIP trimer as analyte; 3 min association, 3 min dissociation; PBS pH 7.4, 0.1% BSA, 0.005% Tween 20, 0.02% NaN3; 1:1 binding model; averages of at least two independent experiments
PGT145 IgG (human) [2] = experiment: as above; remark: listed apart in the source

Chain of PGT145 IgG (human) (heavy, as listed by the source, chain 1 of 2): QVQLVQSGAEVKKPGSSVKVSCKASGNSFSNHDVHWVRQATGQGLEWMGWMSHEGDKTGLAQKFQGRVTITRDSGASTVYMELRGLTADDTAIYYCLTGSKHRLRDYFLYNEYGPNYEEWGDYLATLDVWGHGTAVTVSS
Chain of PGT145 IgG (human) (light, as listed by the source, chain 2 of 2): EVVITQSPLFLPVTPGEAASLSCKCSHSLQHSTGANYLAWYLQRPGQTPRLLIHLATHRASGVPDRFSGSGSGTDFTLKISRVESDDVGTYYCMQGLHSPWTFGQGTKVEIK

For BG505 SOSIP.664 Env trimer (complex), the Kd (PGT145 IgG (human) [1]) was 16 nM, the koff (PGT145 IgG (human) [1]) was 0.00177 s⁻¹ and the kon (PGT145 IgG (human) [1]) was 120000 M⁻¹ s⁻¹. It also gave a Kd (PGT145 IgG (human) [2]) of 15.6 nM, a koff (PGT145 IgG (human) [2]) of 0.00185 s⁻¹ and a kon (PGT145 IgG (human) [2]) of 129000 M⁻¹ s⁻¹.
For BJOX2000 SOSIP.664 Env trimer (complex), the Kd (PGT145 IgG (human) [1]) was 27.7 nM, the koff (PGT145 IgG (human) [1]) was 0.00152 s⁻¹ and the kon (PGT145 IgG (human) [1]) was 66700 M⁻¹ s⁻¹.
For CNE8 SOSIP.664 Env trimer (complex), the Kd (PGT145 IgG (human) [1]) was 50.8 nM, the koff (PGT145 IgG (human) [1]) was 0.00419 s⁻¹ and the kon (PGT145 IgG (human) [1]) was 83400 M⁻¹ s⁻¹.
